Laboratory results as given in US20180074053A1 (priority 2016, published 2018).
Non-standard residues stand in square brackets, D forms with d. No end group written: not given here.

Tests used:
Experiment in all cases: cell-based or functional assay
[1] = biological target: MCHR1 (UniProt Q99705 1-353, limits assumed)
[2] = biological target: MCHR2 (UniProt Q969V1 1-340, limits assumed)
[3] = biological target: Motilin (GPCR target; motilin receptor) (UniProt O43193 1-412, limits assumed)
[4] = biological target: MRGX1 (UniProt Q96LB2 1-322, limits assumed)
Sequence of MRGX1 (Q96LB2 whole entry): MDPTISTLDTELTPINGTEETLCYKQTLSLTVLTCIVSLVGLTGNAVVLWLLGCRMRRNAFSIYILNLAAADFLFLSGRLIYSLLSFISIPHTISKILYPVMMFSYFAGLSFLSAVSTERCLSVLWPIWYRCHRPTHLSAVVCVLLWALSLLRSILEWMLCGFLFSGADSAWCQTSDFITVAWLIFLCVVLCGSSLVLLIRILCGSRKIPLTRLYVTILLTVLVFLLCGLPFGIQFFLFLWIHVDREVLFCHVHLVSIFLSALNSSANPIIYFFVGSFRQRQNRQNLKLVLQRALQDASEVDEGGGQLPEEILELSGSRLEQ

[5] = biological target: T1, MRGX2 (UniProt Q96LB1 1-330, limits assumed)
T1 sequence (looked up): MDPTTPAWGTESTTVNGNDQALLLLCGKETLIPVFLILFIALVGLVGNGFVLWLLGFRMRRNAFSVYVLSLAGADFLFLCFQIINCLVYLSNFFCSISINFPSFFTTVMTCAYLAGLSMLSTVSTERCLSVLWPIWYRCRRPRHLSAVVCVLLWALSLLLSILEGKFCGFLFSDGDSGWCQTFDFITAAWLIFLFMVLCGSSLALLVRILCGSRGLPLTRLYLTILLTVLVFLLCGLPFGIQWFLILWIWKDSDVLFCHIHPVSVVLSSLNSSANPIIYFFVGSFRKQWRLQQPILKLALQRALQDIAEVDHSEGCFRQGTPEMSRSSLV

[6] = biological target: NK1 (UniProt P25103 1-407)
Sequence of NK1 (P25103 whole entry): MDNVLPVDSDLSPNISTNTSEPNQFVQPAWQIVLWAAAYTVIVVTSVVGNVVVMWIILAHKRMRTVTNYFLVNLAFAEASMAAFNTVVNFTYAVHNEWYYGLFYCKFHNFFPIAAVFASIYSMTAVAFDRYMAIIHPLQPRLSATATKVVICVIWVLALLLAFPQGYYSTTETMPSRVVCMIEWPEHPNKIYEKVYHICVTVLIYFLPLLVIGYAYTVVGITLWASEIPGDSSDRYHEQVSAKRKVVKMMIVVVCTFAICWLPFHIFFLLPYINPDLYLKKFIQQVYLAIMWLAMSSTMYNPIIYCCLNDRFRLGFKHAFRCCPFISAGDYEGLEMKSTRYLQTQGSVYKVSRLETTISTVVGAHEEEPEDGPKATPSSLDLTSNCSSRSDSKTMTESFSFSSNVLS

[7] = biological target: T2, NMUR1 (UniProt Q9HB89 1-426, limits assumed)
T2 sequence (looked up): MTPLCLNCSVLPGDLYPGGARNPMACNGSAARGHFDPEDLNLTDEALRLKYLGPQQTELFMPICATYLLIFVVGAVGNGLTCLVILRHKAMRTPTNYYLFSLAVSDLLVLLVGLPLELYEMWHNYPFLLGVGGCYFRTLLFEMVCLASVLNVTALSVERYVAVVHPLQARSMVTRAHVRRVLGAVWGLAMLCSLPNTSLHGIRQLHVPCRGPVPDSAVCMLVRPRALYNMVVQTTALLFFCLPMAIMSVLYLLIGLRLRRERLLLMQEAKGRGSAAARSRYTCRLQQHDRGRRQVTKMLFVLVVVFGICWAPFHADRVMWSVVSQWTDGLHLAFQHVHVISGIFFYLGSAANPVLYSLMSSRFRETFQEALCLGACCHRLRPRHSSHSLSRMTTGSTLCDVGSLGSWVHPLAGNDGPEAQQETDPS

[8] = biological target: NMUR2 (UniProt Q9GZQ4 1-415, limits assumed)
Sequence of NMUR2 (Q9GZQ4 whole entry): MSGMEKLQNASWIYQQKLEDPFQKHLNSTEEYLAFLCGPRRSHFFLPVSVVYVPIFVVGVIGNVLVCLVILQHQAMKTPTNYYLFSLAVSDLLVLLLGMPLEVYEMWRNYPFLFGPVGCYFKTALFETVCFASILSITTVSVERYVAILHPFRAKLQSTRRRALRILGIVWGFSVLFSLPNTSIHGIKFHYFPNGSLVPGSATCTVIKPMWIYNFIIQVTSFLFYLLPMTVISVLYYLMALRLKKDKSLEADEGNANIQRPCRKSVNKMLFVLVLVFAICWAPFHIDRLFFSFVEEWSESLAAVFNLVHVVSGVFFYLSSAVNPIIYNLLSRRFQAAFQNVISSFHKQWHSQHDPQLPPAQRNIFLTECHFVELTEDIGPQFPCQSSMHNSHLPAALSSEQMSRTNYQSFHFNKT

[9] = biological target: NOP (UniProt P41146 1-370)
Sequence of NOP (P41146 whole entry): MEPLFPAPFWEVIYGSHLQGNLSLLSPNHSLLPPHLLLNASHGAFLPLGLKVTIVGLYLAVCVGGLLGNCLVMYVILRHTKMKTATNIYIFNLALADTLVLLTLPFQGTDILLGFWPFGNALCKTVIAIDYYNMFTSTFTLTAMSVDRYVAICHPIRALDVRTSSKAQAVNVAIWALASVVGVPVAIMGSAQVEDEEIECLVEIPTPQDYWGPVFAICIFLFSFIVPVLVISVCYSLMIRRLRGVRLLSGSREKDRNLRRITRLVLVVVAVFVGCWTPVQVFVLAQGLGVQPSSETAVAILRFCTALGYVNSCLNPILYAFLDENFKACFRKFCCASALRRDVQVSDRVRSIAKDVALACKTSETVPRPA

[10] = biological target: GPCR40, the free fatty acid receptor (human, UniProt O14842 1-300)
Sequence of GPCR40, the free fatty acid receptor (O14842 whole entry): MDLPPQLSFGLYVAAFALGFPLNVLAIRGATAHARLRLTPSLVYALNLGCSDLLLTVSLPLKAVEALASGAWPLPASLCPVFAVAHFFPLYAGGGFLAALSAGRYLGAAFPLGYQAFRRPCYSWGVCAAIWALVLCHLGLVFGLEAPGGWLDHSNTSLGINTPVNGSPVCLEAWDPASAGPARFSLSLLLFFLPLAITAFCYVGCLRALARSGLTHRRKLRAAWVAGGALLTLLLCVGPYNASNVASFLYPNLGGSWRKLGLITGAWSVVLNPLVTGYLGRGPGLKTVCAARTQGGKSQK

[11] = biological target: GPCR 109a, the nicotinic acid receptor (human, UniProt Q8TDS4 1-363)
Sequence of GPCR 109a, the nicotinic acid receptor (Q8TDS4 whole entry): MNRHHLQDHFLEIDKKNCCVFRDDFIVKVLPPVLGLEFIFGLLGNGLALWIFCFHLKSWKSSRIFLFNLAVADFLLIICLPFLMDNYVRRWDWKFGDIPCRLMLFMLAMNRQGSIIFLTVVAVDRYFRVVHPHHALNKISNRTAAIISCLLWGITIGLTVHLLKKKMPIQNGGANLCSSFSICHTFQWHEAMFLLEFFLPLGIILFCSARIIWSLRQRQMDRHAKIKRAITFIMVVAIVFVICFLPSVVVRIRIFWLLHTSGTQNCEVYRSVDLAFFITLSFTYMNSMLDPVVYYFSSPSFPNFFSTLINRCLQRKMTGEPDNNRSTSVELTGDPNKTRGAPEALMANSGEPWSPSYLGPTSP

[12] = biological target: MC2 (UniProt Q01718 1-297)
Sequence of MC2 (Q01718 whole entry): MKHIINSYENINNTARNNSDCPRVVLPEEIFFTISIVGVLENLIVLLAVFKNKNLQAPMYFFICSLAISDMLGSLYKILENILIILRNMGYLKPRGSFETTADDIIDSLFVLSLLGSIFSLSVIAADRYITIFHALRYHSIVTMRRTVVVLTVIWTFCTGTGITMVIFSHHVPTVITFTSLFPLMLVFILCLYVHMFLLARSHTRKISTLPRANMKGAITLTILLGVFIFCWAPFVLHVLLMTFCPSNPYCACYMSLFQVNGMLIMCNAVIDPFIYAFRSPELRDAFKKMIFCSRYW

[13] = biological target: MC4 (UniProt P32245 1-332)
Sequence of MC4 (P32245 whole entry): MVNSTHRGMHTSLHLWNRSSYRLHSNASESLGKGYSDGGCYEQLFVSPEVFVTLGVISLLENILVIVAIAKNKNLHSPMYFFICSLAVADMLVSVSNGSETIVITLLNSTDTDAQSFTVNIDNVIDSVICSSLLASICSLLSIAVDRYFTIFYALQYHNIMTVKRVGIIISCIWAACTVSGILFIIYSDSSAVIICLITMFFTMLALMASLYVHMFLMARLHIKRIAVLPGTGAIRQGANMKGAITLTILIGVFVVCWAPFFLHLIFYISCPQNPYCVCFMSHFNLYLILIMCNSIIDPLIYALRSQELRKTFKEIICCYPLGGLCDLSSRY

[14] = biological target: MC5 (UniProt P33032 1-325)
Sequence of MC5 (P33032 whole entry): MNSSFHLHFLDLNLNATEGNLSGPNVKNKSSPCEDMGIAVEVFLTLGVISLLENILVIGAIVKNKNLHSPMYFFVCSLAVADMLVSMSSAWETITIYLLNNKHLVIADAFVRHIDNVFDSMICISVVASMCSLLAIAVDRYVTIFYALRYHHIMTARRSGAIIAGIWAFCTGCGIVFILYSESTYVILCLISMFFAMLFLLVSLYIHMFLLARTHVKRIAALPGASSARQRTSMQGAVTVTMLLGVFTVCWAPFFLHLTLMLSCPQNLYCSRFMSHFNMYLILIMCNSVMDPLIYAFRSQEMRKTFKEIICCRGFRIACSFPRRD

Sequence of MCHR2 (Q969V1 whole entry): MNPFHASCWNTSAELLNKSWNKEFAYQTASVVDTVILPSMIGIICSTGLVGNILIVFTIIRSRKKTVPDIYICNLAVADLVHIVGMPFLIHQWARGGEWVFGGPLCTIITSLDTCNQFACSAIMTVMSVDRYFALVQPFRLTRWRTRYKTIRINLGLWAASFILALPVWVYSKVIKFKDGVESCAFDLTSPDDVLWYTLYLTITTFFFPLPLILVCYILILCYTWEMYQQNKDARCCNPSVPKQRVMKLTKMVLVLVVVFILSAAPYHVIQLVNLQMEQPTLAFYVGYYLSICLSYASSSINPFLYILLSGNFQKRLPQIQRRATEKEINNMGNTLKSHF
Sequence of MCHR1 (Q99705 whole entry): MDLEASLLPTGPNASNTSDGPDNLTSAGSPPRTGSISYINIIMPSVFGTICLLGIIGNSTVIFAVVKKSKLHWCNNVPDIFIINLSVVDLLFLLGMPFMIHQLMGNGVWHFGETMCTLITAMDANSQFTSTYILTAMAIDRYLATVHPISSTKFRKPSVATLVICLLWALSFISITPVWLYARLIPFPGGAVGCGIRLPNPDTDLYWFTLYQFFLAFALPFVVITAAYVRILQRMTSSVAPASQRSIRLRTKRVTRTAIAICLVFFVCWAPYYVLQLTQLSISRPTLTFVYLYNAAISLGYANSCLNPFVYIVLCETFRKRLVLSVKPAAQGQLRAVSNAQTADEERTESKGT
Sequence of Motilin (GPCR target; motilin receptor) (O43193 whole entry): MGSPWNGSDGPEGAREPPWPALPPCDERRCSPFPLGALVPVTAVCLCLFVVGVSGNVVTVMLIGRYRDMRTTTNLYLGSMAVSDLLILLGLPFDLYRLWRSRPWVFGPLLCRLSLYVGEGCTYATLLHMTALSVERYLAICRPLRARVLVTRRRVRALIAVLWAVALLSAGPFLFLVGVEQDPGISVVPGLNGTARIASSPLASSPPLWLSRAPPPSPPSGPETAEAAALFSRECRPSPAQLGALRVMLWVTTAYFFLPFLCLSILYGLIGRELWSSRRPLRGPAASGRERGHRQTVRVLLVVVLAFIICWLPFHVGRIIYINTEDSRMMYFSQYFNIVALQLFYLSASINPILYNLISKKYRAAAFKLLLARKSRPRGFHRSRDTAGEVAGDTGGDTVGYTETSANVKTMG

Gly-Gly-[dL] [DT-110, tripeptide glycine-glycine-D-leucine (GGdL)]
percent activation (calcium flux, GPCRProfiler), DT-110 @ 1.25 mM, Avg. [1]: 0.4%
percent activation (calcium flux, GPCRProfiler), DT-110 @ 1.25 mM, n1 [1]: 0.2%
percent activation (calcium flux, GPCRProfiler), DT-110 @ 1.25 mM, n2 [1]: 0.7%
percent activation (calcium flux, GPCRProfiler), DT-110 @ 12.5 mM, Avg. [1]: -0.1%
percent activation (calcium flux, GPCRProfiler), DT-110 @ 12.5 mM, n1 [1]: -0.5%
percent activation (calcium flux, GPCRProfiler), DT-110 @ 12.5 mM, n2 [1]: 0.3%
percent activation (calcium flux, GPCRProfiler), DT-110 @ 1.25 mM, Avg. [2]: 0.5%
percent activation (calcium flux, GPCRProfiler), DT-110 @ 1.25 mM, n1 [2]: 0.1%
percent activation (calcium flux, GPCRProfiler), DT-110 @ 1.25 mM, n2 [2]: 0.8%
percent activation (calcium flux, GPCRProfiler), DT-110 @ 12.5 mM, Avg. [2]: -0.9%
percent activation (calcium flux, GPCRProfiler), DT-110 @ 12.5 mM, n1 [2]: -0.8%
percent activation (calcium flux, GPCRProfiler), DT-110 @ 12.5 mM, n2 [2]: -0.9%
percent activation (calcium flux, GPCRProfiler), DT-110 @ 1.25 mM, Avg. [3]: -0.3%
percent activation (calcium flux, GPCRProfiler), DT-110 @ 1.25 mM, n1 [3]: -0.3%
percent activation (calcium flux, GPCRProfiler), DT-110 @ 1.25 mM, n2 [3]: -0.3%
percent activation (calcium flux, GPCRProfiler), DT-110 @ 12.5 mM, Avg. [3]: -0.4%
percent activation (calcium flux, GPCRProfiler), DT-110 @ 12.5 mM, n1 [3]: -0.3%
percent activation (calcium flux, GPCRProfiler), DT-110 @ 12.5 mM, n2 [3]: -0.5%
percent activation (calcium flux, GPCRProfiler), DT-110 @ 1.25 mM, Avg. [4]: -1.9%
percent activation (calcium flux, GPCRProfiler), DT-110 @ 1.25 mM, n1 [4]: -1.3%
percent activation (calcium flux, GPCRProfiler), DT-110 @ 1.25 mM, n2 [4]: -2.5%
percent activation (calcium flux, GPCRProfiler), DT-110 @ 12.5 mM, Avg. [4]: -6.6%
percent activation (calcium flux, GPCRProfiler), DT-110 @ 12.5 mM, n1 [4]: -6.7%
percent activation (calcium flux, GPCRProfiler), DT-110 @ 12.5 mM, n2 [4]: -6.6%
percent activation (calcium flux, GPCRProfiler), DT-110 @ 1.25 mM, Avg. [5]: -0.2%
percent activation (calcium flux, GPCRProfiler), DT-110 @ 1.25 mM, n1 [5]: 0%
percent activation (calcium flux, GPCRProfiler), DT-110 @ 1.25 mM, n2 [5]: -0.4%
percent activation (calcium flux, GPCRProfiler), DT-110 @ 12.5 mM, Avg. [5]: 0%
percent activation (calcium flux, GPCRProfiler), DT-110 @ 12.5 mM, n1 [5]: 0.4%
percent activation (calcium flux, GPCRProfiler), DT-110 @ 12.5 mM, n2 [5]: -0.4%
percent activation (calcium flux, GPCRProfiler), DT-110 @ 1.25 mM, Avg. [6]: -0.9%
percent activation (calcium flux, GPCRProfiler), DT-110 @ 1.25 mM, n1 [6]: -1%
percent activation (calcium flux, GPCRProfiler), DT-110 @ 1.25 mM, n2 [6]: -0.9%
percent activation (calcium flux, GPCRProfiler), DT-110 @ 12.5 mM, Avg. [6]: -1.1%
percent activation (calcium flux, GPCRProfiler), DT-110 @ 12.5 mM, n1 [6]: -1%
percent activation (calcium flux, GPCRProfiler), DT-110 @ 12.5 mM, n2 [6]: -1.1%
percent activation (calcium flux, GPCRProfiler), DT-110 @ 1.25 mM, Avg. [7]: 0.5%
percent activation (calcium flux, GPCRProfiler), DT-110 @ 1.25 mM, n1 [7]: 1.3%
percent activation (calcium flux, GPCRProfiler), DT-110 @ 1.25 mM, n2 [7]: -0.4%
percent activation (calcium flux, GPCRProfiler), DT-110 @ 12.5 mM, Avg. [7]: -0.1%
percent activation (calcium flux, GPCRProfiler), DT-110 @ 12.5 mM, n1 [7]: -0.7%
percent activation (calcium flux, GPCRProfiler), DT-110 @ 12.5 mM, n2 [7]: 0.5%
percent activation (calcium flux, GPCRProfiler), DT-110 @ 1.25 mM, Avg. [8]: 2.4%
percent activation (calcium flux, GPCRProfiler), DT-110 @ 1.25 mM, n1 [8]: 0.9%
percent activation (calcium flux, GPCRProfiler), DT-110 @ 1.25 mM, n2 [8]: 3.9%
percent activation (calcium flux, GPCRProfiler), DT-110 @ 12.5 mM, Avg. [8]: -0.9%
percent activation (calcium flux, GPCRProfiler), DT-110 @ 12.5 mM, n1 [8]: 0.4%
percent activation (calcium flux, GPCRProfiler), DT-110 @ 12.5 mM, n2 [8]: -2.2%
percent activation (calcium flux, GPCRProfiler), DT-110 @ 1.25 mM, Avg. [9]: -0.1%
percent activation (calcium flux, GPCRProfiler), DT-110 @ 1.25 mM, n1 [9]: -7.8%
percent activation (calcium flux, GPCRProfiler), DT-110 @ 1.25 mM, n2 [9]: 7.6%
percent activation (calcium flux, GPCRProfiler), DT-110 @ 12.5 mM, Avg. [9]: -2.3%
percent activation (calcium flux, GPCRProfiler), DT-110 @ 12.5 mM, n1 [9]: 3.4%
percent activation (calcium flux, GPCRProfiler), DT-110 @ 12.5 mM, n2 [9]: -8%
percent activation (calcium flux, GPCRProfiler), DT-110 @ 1.25 mM, Avg. [10]: -9.5%
percent activation (calcium flux, GPCRProfiler), DT-110 @ 1.25 mM, n1 [10]: -9.3%
percent activation (calcium flux, GPCRProfiler), DT-110 @ 1.25 mM, n2 [10]: -9.6%
percent activation (calcium flux, GPCRProfiler), DT-110 @ 12.5 mM, Avg. [10]: 50.2%
percent activation (calcium flux, GPCRProfiler), DT-110 @ 12.5 mM, n1 [10]: 55.9%
percent activation (calcium flux, GPCRProfiler), DT-110 @ 12.5 mM, n2 [10]: 44.5%
percent activation (calcium flux, GPCRProfiler), DT-110 @ 1.25 mM, Avg. [11]: -8.1%
percent activation (calcium flux, GPCRProfiler), DT-110 @ 1.25 mM, n1 [11]: -8.1%
percent activation (calcium flux, GPCRProfiler), DT-110 @ 1.25 mM, n2 [11]: -8%
percent activation (calcium flux, GPCRProfiler), DT-110 @ 12.5 mM, Avg. [11]: 54.3%
percent activation (calcium flux, GPCRProfiler), DT-110 @ 12.5 mM, n1 [11]: 52.9%
percent activation (calcium flux, GPCRProfiler), DT-110 @ 12.5 mM, n2 [11]: 55.7%
percent activation (calcium flux, GPCRProfiler), DT-110 @ 1.25 mM, Avg. [12]: -0.7%
percent activation (calcium flux, GPCRProfiler), DT-110 @ 1.25 mM, n1 [12]: 0.6%
percent activation (calcium flux, GPCRProfiler), DT-110 @ 1.25 mM, n2 [12]: -2%
percent activation (calcium flux, GPCRProfiler), DT-110 @ 12.5 mM, Avg. [12]: -1%
percent activation (calcium flux, GPCRProfiler), DT-110 @ 12.5 mM, n1 [12]: -1%
percent activation (calcium flux, GPCRProfiler), DT-110 @ 12.5 mM, n2 [12]: -0.9%
percent activation (calcium flux, GPCRProfiler), DT-110 @ 1.25 mM, Avg. [13]: -0.5%
percent activation (calcium flux, GPCRProfiler), DT-110 @ 1.25 mM, n1 [13]: 3%
percent activation (calcium flux, GPCRProfiler), DT-110 @ 1.25 mM, n2 [13]: -4%
percent activation (calcium flux, GPCRProfiler), DT-110 @ 12.5 mM, Avg. [13]: 3.4%
percent activation (calcium flux, GPCRProfiler), DT-110 @ 12.5 mM, n1 [13]: -0.2%
percent activation (calcium flux, GPCRProfiler), DT-110 @ 12.5 mM, n2 [13]: 7%
percent activation (calcium flux, GPCRProfiler), DT-110 @ 1.25 mM, Avg. [14]: 0%
percent activation (calcium flux, GPCRProfiler), DT-110 @ 1.25 mM, n1 [14]: 0.7%
percent activation (calcium flux, GPCRProfiler), DT-110 @ 1.25 mM, n2 [14]: -0.8%
percent activation (calcium flux, GPCRProfiler), DT-110 @ 12.5 mM, Avg. [14]: -0.3%
percent activation (calcium flux, GPCRProfiler), DT-110 @ 12.5 mM, n1 [14]: -0.6%
percent activation (calcium flux, GPCRProfiler), DT-110 @ 12.5 mM, n2 [14]: 0%
